Test results taken from publication PMC11574045, “A cofactor-induced repressive type of transcription factor condensation can be induced by synthetic peptides to suppress tumorigenesis” (The EMBO Journal, 2024).

System: HEK293FT cells transfected with TF library
Assay: Screening of TF condensates based on fluorescent puncta
Assay type: cell-based
Settings: Figure 1B numerical data; TF library screen, one value per transcriptional factor
Method in brief: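 Each TF construct was introduced into HEK293FT cells using PEI at 4.8 μg/ml; glucose deprivation versus normal medium lasted 12 h. Automated confocal-style imaging of tagged TF staining, 50 fields per well, gave the puncta data.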

| Molecule | Z score of condensed fraction |
| --- | --- |
| SMAD3 (protein, UniProt P84022 2-425, looked up) Mothers against …: SSILPFTPPIVKRLLGWKKGEQNGQEEKWCEKAVKSLVKKLKKTGQLDELEKAITTQNVNTKCITIPRSLDGRLQVSHRKGLPHVIYCRLWRWPDLHSHHELRAMELCEFAFNMKKDEVCVNPYHYQRVETPVLPPVLVPRHTEIPAEFPPLDDYSHSIPENTNFPAGIEPQSNIPETPPPGYLSEDGETSDHQMNHSMDAGSPNLSPNPMSPAHNNLDLQPVTYCEPAFWCSISYYELNQRVGETFHASQPSMTVDGFTDPSNSERFCLGLLSNVNRNAAVELTRRHIGRGVRLYYIGGEVFAECLSDSAIFVQSPNCNQRYGWHPATVCKIPPGCNLKIFNNQEFAALLAQSVNQGFEAVYQLTRMCTIRMSFVKGWGAEYRRQTVTSTPCWIELHLNGPLQWLDKVLTQMGSPSIRCSSVS | -0.8472 |
| SIX6 (protein, UniProt Q9QZ28 1-246, looked up) Homeobox protein SIX6: MFQLPILNFSPQQVAGVCETLEESGDVERLGRFLWSLPVAPAACEALNKNESVLRARAIVAFHGGNYRELYHILENHKFTKESHAKLQALWLEAHYQEAEKLRGRPLGPVDKYRVRKKFPLPRTIWDGEQKTHCFKERTRHLLREWYLQDPYPNPSKKRELAQATGLTPTQVGNWFKNRRQRDRAAAAKNRLQQQVLSQGPGRVLRSEGEGTPEVLGVASSPAASLSSKAATSAISITSSDSECDI | 1.297 |
| SIX2 (protein, UniProt Q9NPC8 1-291, looked up) Homeobox protein SIX2: MSMLPTFGFTQEQVACVCEVLQQGGNIERLGRFLWSLPACEHLHKNESVLKAKAVVAFHRGNFRELYKILESHQFSPHNHAKLQQLWLKAHYIEAEKLRGRPLGAVGKYRVRRKFPLPRSIWDGEETSYCFKEKSRSVLREWYAHNPYPSPREKRELAEATGLTTTQVSNWFKNRRQRDRAAEAKERENNENSNSNSHNPLNGSGKSVLGSSEDEKTPSGTPDHSSSSPALLLSPPPPGLPSLHSLGHPPGPSAVPVPVPGGGGADPLQHHHGLQDSILNPMSANLVDLGS | -0.1884 |
| SIX1 (protein, UniProt Q15475 1-284, looked up) Homeobox protein SIX1: MSMLPSFGFTQEQVACVCEVLQQGGNLERLGRFLWSLPACDHLHKNESVLKAKAVVAFHRGNFRELYKILESHQFSPHNHPKLQQLWLKAHYVEAEKLRGRPLGAVGKYRVRRKFPLPRTIWDGEETSYCFKEKSRGVLREWYAHNPYPSPREKRELAEATGLTTTQVSNWFKNRRQRDRAAEAKERENTENNNSSSNKQNQLSPLEGGKPLMSSSEEEFSPPQSPDQNSVLLLQGNMGHARSSNYSLPGLTASQPSHGLQTHQHQLQDSLLGPLTSSLVDLGS | -0.6669 |
| SMAD7 (protein, UniProt O15105 1-426, looked up) Mothers against …: MFRTKRSALVRRLWRSRAPGGEDEEEGAGGGGGGGELRGEGATDSRAHGAGGGGPGRAGCCLGKAVRGAKGHHHPHPPAAGAGAAGGAEADLKALTHSVLKKLKERQLELLLQAVESRGGTRTACLLLPGRLDCRLGPGAPAGAQPAQPPSSYSLPLLLCKVFRWPDLRHSSEVKRLCCCESYGKINPELVCCNPHHLSRLCELESPPPPYSRYPMDFLKPTADCPDAVPSSAETGGTNYLAPGGLSDSQLLLEPGDRSHWCVVAYWEEKTRVGRLYCVQEPSLDIFYDLPQGNGFCLGQLNSDNKSQLVQKVRSKIGCGIQLTREVDGVWVYNRSSYPIFIKSATLDNPDSRTLLVHKVFPGFSIKAFDYEKAYSLQRPNDHEFMQQPWTGFTVQISFVKGWGQCYTRQFISSCPCWLEVIFNSR | -1.192 |
| BCL11A (protein, UniProt Q9H165 1-835, looked up) BCL11 transcription factor A: MSRRKQGKPQHLSKREFSPEPLEAILTDDEPDHGPLGAPEGDHDLLTCGQCQMNFPLGDILIFIEHKRKQCNGSLCLEKAVDKPPSPSPIEMKKASNPVEVGIQVTPEDDDCLSTSSRGICPKQEHIADKLLHWRGLSSPRSAHGALIPTPGMSAEYAPQGICKDEPSSYTCTTCKQPFTSAWFLLQHAQNTHGLRIYLESEHGSPLTPRVGIPSGLGAECPSQPPLHGIHIADNNPFNLLRIPGSVSREASGLAEGRFPPTPPLFSPPPRHHLDPHRIERLGAEEMALATHHPSAFDRVLRLNPMAMEPPAMDFSRRLRELAGNTSSPPLSPGRPSPMQRLLQPFQPGSKPPFLATPPLPPLQSAPPPSQPPVKSKSCEFCGKTFKFQSNLVVHRRSHTGEKPYKCNLCDHACTQASKLKRHMKTHMHKSSPMTVKSDDGLSTASSPEPGTSDLVGSASSALKSVVAKFKSENDPNLIPENGDEEEEEDDEEEEEEEEEEEEELTESERVDYGFGLSLEAARHHENSSRGAVVGVGDESRALPDVMQGMVLSSMQHFSEAFHQVLGEKHKRGHLAEAEGHRDTCDEDSVAGESDRIDDGTVNGRGCSPGESASGGLSKKLLLGSPSSLSPFSKRIKLEKEFDLPPAAMPNTENVYSQWLAGYAASRQLKDPFLSFGDSRQSPFASSSEHSSENGSLRFSTPPGELDGGISGRSGTGSGGSTPHISGPGPGRPSSKEGRRSDTCEYCGKVFKNCSNLTVHRRSHTGERPYKCELCNYACAQSSKLTRHMKTHGQVGKDVYKCEICKMPFSVYSTLEKHMKKWHSDRVLNNDIKTE | -0.5173 |
| SMAD4 (protein, UniProt Q13485 1-552, looked up) Mothers against …: MDNMSITNTPTSNDACLSIVHSLMCHRQGGESETFAKRAIESLVKKLKEKKDELDSLITAITTNGAHPSKCVTIQRTLDGRLQVAGRKGFPHVIYARLWRWPDLHKNELKHVKYCQYAFDLKCDSVCVNPYHYERVVSPGIDLSGLTLQSNAPSSMMVKDEYVHDFEGQPSLSTEGHSIQTIQHPPSNRASTETYSTPALLAPSESNATSTANFPNIPVASTSQPASILGGSHSEGLLQIASGPQPGQQQNGFTGQPATYHHNSTTTWTGSRTAPYTPNLPHHQNGHLQHHPPMPPHPGHYWPVHNELAFQPPISNHPAPEYWCSIAYFEMDVQVGETFKVPSSCPIVTVDGYVDPSGGDRFCLGQLSNVHRTEAIERARLHIGKGVQLECKGEGDVWVRCLSDHAVFVQSYYLDREAGRAPGDAVHKIYPSAYIKVFDLRQCHRQMQQQAATAQAAAAAQAAAVAGNIPGPGSVGGIAPAISLSAAAGIGVDDLRRLCILRMSFVKGWGPDYPRQSIKETPCWIEIHLHRALQLLDEVLHTMPIADPQPLD | -0.5517 |
| SIX3 (protein, UniProt O95343 1-332, looked up) Homeobox protein SIX3: MVFRSPLDLYSSHFLLPNFADSHHRSILLASSGGGNGAGGGGGAGGGSGGGNGAGGGGAGGAGGGGGGGSRAPPEELSMFQLPTLNFSPEQVASVCETLEETGDIERLGRFLWSLPVAPGACEAINKHESILRARAVVAFHTGNFRDLYHILENHKFTKESHGKLQAMWLEAHYQEAEKLRGRPLGPVDKYRVRKKFPLPRTIWDGEQKTHCFKERTRSLLREWYLQDPYPNPSKKRELAQATGLTPTQVGNWFKNRRQRDRAAAAKNRLQHQAIGPSGMRSLAEPGCPTHGSAESPSTAASPTTSVSSLTERADTGTSILSVTSSDSECDV | -0.646 |
